# B1: AN1-type zinc finger protein 5 (Homo sapiens), O76080 (parent)
# chain: MAQETNQTPGPMLCSTGCGFYGNPRTNGMCSVCYKEHLQRQQNSGRMSPMGTASGSNSPTSDSASVQRADTSLNNCEGAAGSTSEKSRNVPVAALPVTQQMTEMSISREDKITTPKTEVSEPVVTQPSPSVSQPSTSQSEEKAPELPKPKKNRCFMCRKKVGLTGFDCRCGNLFCGLHRYSDKHNCPYDYKAEAAAKIRKENPVVVAEKIQRI
# Variants of: B1
# Details: with psmd6_human PSMD6, Q15008
# psmd6_human PSMD6, Q15008, sequence (Q15008 whole entry): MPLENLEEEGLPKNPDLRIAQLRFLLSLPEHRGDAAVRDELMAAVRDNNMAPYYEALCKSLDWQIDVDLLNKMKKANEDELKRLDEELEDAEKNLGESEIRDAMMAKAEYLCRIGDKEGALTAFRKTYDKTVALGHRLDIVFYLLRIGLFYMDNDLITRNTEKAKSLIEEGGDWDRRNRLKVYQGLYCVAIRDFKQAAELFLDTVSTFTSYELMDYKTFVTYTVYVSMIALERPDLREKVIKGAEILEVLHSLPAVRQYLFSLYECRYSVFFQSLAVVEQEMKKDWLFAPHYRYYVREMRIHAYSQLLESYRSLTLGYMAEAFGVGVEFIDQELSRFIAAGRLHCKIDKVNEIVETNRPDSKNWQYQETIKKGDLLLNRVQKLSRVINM
row,effect of a mutation on the interaction,Variant
1,disrupting interaction,MAQETNQTPGPMLCSTGCGFYGNPRTNGMCSVCYKEHLQRQQNSGRMSPMGTASGSNSPTSDSASVQRADTSLNNCEGAAGSTSEKSRNVPVAALPVTQQMTEMSISREDKITTPKTEVSEPVVTQPSPSVSQPSTSQSEEKAPELPKPKKNRCFMCRKKVGLTGFDCRAGNLFCGLHRYSDKHNCPYDYKAEAAAKIRKENPVVVAEKIQRI [C170A]
2,disrupting interaction,MAQETNQTPGPMLCSTGCGFYGNPRTNGMASVCYKEHLQRQQNSGRMSPMGTASGSNSPTSDSASVQRADTSLNNCEGAAGSTSEKSRNVPVAALPVTQQMTEMSISREDKITTPKTEVSEPVVTQPSPSVSQPSTSQSEEKAPELPKPKKNRCFMCRKKVGLTGFDCRCGNLFCGLHRYSDKHNCPYDYKAEAAAKIRKENPVVVAEKIQRI [C30A]
3,disrupting interaction,MAQETNQTPGPMLCSTGCGFYGNPRTNGMCSVCYKEHLQRQQNSGRMSPMGTASGSNSPTSDSASVQRADTSLNNCEGAAGSTSEKSRNVPVAALPVTQQMTEMSISREDKITTPKTEVSEPVVTQPSPSVSQPSTSQSEEKAPELPKPKKNRCFMCRKKVGLTGFDCRCGNLFAGLHRYSDKHNCPYDYKAEAAAKIRKENPVVVAEKIQRI [C175A]
4,disrupting interaction,MAQETNQTPGPMLCSTGCGFYGNPRTNGMCSVAYKEHLQRQQNSGRMSPMGTASGSNSPTSDSASVQRADTSLNNCEGAAGSTSEKSRNVPVAALPVTQQMTEMSISREDKITTPKTEVSEPVVTQPSPSVSQPSTSQSEEKAPELPKPKKNRCFMCRKKVGLTGFDCRCGNLFCGLHRYSDKHNCPYDYKAEAAAKIRKENPVVVAEKIQRI [C33A]

# Variants of: B1
# Details: with ubc_human UBC
row,effect of a mutation on the interaction,Variant
1,disrupting interaction,MAQETNQTPGPMLCSTGCGFYGNPRTNGMASVCYKEHLQRQQNSGRMSPMGTASGSNSPTSDSASVQRADTSLNNCEGAAGSTSEKSRNVPVAALPVTQQMTEMSISREDKITTPKTEVSEPVVTQPSPSVSQPSTSQSEEKAPELPKPKKNRCFMCRKKVGLTGFDCRCGNLFCGLHRYSDKHNCPYDYKAEAAAKIRKENPVVVAEKIQRI [C30A]
2,disrupting interaction,MAQETNQTPGPMLCSTGCGFYGNPRTNGMCSVAYKEHLQRQQNSGRMSPMGTASGSNSPTSDSASVQRADTSLNNCEGAAGSTSEKSRNVPVAALPVTQQMTEMSISREDKITTPKTEVSEPVVTQPSPSVSQPSTSQSEEKAPELPKPKKNRCFMCRKKVGLTGFDCRCGNLFCGLHRYSDKHNCPYDYKAEAAAKIRKENPVVVAEKIQRI [C33A]
